Test results as given in publication doi:10.1101/2023.08.15.553463.

Biological target: actin filaments (F-actin) polymerised from chicken skeletal muscle actin (chicken) (UniProt P68139)
Assay: TIRF microscopy (gliding filament assay); unpatterned PEG-silane coverslips with 50 nM myosin-5; 1 μM phalloidin-labelled F-actin pre-incubated with 1, 2, 5 or 10 nM CPC for 15 min at room temperature; imaging buffer with 2 mM ATP and calmodulin; about 25°C

- median time to rupture of paired filament complexes under myosin-5 tension: 26 to 29 s
Substance: capping protein complex (CPC): two CapZAB capping protein heterodimers covalently attached through a linker complex (from UniProt P47753 1-286; P47757-2 1-272)
